B1: Arf-GAP domain and FG repeat-containing protein 1 (Homo sapiens), P52594 (parent)
chain: MAASAKRKQEEKHLKMLRDMTGLPHNRKCFDCDQRGPTYVNMTVGSFVCTSCSGSLRGLNPPHRVKSISMTTFTQQEIEFLQKHGNEVCKQIWLGLFDDRSSAIPDFRDPQKVKEFLQEKYEKKRWYVPPEQAKVVASVHASISGSSASSTSSTPEVKPLKSLLGDSAPTLHLNKGTPSQSPVVGRSQGQQQEKKQFDLLSDLGSDIFAAPAPQSTATANFANFAHFNSHAAQNSANADFANFDAFGQSSGSSNFGGFPTASHSPFQPQTTGGSAASVNANFAHFDNFPKSSSADFGTFNTSQSHQTASAVSKVSTNKAGLQTADKYAALANLDNIFSAGQGGDQGSGFGTTGKAPVGSVVSVPSQSSASSDKYAALAELDSVFSSAATSSNAYTSTSNASSNVFGTVPVVASAQTQPASSSVPAPFGATPSTNPFVAAAGPSVASSTNPFQTNARGATAATFGTASMSMPTGFGTPAPYSLPTSFSGSFQQPAFPAQAAFPQQTAFSQQPNGAGFAAFGQTKPVVTPFGQVAAAGVSSNPFMTGAPTGQFPTGSSSTNPFL
partner: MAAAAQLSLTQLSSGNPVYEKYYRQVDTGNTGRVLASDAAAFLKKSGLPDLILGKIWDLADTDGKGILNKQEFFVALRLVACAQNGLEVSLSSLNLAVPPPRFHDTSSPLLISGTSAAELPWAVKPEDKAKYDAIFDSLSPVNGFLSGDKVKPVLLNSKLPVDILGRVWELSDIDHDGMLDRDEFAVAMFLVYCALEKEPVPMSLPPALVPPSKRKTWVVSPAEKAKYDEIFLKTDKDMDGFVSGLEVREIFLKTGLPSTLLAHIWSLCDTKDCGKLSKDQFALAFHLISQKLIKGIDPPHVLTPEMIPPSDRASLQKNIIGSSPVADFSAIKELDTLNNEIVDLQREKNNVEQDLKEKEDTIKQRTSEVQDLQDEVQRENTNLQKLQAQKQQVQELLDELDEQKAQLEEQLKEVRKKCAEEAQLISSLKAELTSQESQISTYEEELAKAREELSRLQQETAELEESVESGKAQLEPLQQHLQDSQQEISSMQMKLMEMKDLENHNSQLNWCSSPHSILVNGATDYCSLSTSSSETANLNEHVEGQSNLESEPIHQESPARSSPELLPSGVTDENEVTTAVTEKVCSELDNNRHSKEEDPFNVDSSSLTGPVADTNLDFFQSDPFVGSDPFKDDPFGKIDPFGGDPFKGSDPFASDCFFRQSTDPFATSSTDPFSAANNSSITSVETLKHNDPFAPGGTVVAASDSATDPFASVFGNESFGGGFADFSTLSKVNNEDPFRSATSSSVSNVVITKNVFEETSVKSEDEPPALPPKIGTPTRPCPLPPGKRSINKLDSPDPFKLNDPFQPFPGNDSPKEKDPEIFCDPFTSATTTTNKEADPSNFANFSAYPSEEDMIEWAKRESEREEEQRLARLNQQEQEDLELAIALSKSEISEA

In this experiment the parent is B1. To be noted: with eps15_human EPS15, P42566.
As for F436V;F451V;F542V;F561V, the “effect of a mutation on the interaction” value is given as “disrupting interaction”.

The values are drawn from IntAct's records for PubMed 10613896.
